Data taken from IntAct's records for PubMed 31515488.

B1: Coiled-coil domain-containing protein 106 (Homo sapiens), Q9BWC9 (parent)
chain: MNDRSSRRRTMKDDETFEISIPFDEAPHLDPQIFYSLSPSRRNFEEPPEAASSALALMNSVKTQLHMALERNSWLQKRIEDLEEERDFLRCQLDKFISSARMEAEDHCRMKPGPRRMEGDSRGGAGGEASDPESAASSLSGASEEGSASERRRQKQKGGASRRRFGKPKARERQRVKDADGVLCRYKKILGTFQKLKSMSRAFEHHRVDRNTVALTTPIAELLIVAPEKLAEVGEFDPSKERLLEYSRRCFLALDDETLKKVQALKKSKLLLPITYRFKR
B2: DNA topoisomerase 3-beta-1 (Homo sapiens), O95985 (parent)
chain: MKTVLMVAEKPSLAQSIAKILSRGSLSSHKGLNGACSVHEYTGTFAGQPVRFKMTSVCGHVMTLDFLGKYNKWDKVDPAELFSQAPTEKKEANPKLNMVKFLQVEGRGCDYIVLWLDCDKEGENICFEVLDAVLPVMNKAHGGEKTVFRARFSSITDTDICNAMACLGEPDHNEALSVDARQELDLRIGCAFTRFQTKYFQGKYGDLDSSLISFGPCQTPTLGFCVERHDKIQSFKPETYWVLQAKVNTDKDRSLLLDWDRVRVFDREIAQMFLNMTKLEKEAQVEATSRKEKAKQRPLALNTVEMLRVASSSLGMGPQHAMQTAERLYTQGYISYPRTETTHYPENFDLKGSLRQQANHPYWADTVKRLLAEGINRPRKGHDAGDHPPITPMKSATEAELGGDAWRLYEYITRHFIATVSHDCKYLQSTISFRIGPELFTCSGKTVLSPGFTEVMPWQSVPLEESLPTCQRGDAFPVGEVKMLEKQTNPPDYLTEAELITLMEKHGIGTDASIPVHINNICQRNYVTVESGRRLKPTNLGIVLVHGYYKIDAELVLPTIRSAVEKQLNLIAQGKADYRQVLGHTLDVFKRKFHYFVDSIAGMDELMEVSFSPLAATGKPLSRCGKCHRFMKYIQAKPSRLHCSHCDETYTLPQNGTIKLYKELRCPLDDFELVLWSSGSRGKSYPLCPYCYNHPPFRDMKKGMGCNECTHPSCQHSLSMLGIGQCVECESGVLVLDPTSGPKWKVACNKCNVVAHCFENAHRVRVSADTCSVCEAALLDVDFNKAKSPLPGDETQHMGCVFCDPVFQELVELKHAASCHPMHRGGPGRRQGRGRGRARRPPGKPNPRRPKDKMSALAAYFV
partner: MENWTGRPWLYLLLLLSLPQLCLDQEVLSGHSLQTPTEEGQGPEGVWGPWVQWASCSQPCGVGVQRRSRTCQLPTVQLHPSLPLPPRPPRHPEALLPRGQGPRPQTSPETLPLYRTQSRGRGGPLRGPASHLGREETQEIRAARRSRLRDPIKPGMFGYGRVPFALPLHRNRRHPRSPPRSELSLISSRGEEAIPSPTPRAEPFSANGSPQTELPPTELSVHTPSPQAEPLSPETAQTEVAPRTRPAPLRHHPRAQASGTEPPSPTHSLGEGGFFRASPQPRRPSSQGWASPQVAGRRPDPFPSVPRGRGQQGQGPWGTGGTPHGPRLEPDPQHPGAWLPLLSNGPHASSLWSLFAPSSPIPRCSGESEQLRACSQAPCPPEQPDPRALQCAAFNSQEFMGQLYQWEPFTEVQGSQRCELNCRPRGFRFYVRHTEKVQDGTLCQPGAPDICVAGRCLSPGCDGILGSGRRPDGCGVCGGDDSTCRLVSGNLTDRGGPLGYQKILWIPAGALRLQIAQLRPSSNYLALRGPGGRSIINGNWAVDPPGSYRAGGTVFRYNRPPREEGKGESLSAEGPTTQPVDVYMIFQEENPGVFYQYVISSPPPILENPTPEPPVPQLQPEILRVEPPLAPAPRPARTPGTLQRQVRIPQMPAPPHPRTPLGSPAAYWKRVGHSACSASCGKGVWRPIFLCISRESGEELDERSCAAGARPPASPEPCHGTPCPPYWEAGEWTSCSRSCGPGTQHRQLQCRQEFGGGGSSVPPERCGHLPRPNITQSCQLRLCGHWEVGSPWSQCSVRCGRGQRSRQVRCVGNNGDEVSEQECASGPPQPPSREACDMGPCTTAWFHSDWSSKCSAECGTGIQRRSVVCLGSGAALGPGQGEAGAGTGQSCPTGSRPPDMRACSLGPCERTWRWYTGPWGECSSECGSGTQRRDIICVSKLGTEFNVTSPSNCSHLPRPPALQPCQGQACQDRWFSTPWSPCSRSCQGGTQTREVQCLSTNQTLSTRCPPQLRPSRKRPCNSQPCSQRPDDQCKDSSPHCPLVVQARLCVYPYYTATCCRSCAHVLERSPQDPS
B3: 5-phosphohydroxy-L-lysine phospho-lyase (Homo sapiens), Q8IUZ5 (parent)
chain: MAADQRPKADTLALRQRLISSSCRLFFPEDPVKIVRAQGQYMYDEQGAEYIDCISNVAHVGHCHPLVVQAAHEQNQVLNTNSRYLHDNIVDYAQRLSETLPEQLCVFYFLNSGSEANDLALRLARHYTGHQDVVVLDHAYHGHLSSLIDISPYKFRNLDGQKEWVHVAPLPDTYRGPYREDHPNPAMAYANEVKRVVSSAQEKGRKIAAFFAESLPSVGGQIIPPAGYFSQVAEHIRKAGGVFVADEIQVGFGRVGKHFWAFQLQGKDFVPDIVTMGKSIGNGHPVACVAATQPVARAFEATGVEYFNTFGGSPVSCAVGLAVLNVLEKEQLQDHATSVGSFLMQLLGQQKIKHPIVGDVRGVGLFIGVDLIKDEATRTPATEEAAYLVSRLKENYVLLSTDGPGRNILKFKPPMCFSLDNARQVVAKLDAILTDMEEKVRSCETLRLQP
partner: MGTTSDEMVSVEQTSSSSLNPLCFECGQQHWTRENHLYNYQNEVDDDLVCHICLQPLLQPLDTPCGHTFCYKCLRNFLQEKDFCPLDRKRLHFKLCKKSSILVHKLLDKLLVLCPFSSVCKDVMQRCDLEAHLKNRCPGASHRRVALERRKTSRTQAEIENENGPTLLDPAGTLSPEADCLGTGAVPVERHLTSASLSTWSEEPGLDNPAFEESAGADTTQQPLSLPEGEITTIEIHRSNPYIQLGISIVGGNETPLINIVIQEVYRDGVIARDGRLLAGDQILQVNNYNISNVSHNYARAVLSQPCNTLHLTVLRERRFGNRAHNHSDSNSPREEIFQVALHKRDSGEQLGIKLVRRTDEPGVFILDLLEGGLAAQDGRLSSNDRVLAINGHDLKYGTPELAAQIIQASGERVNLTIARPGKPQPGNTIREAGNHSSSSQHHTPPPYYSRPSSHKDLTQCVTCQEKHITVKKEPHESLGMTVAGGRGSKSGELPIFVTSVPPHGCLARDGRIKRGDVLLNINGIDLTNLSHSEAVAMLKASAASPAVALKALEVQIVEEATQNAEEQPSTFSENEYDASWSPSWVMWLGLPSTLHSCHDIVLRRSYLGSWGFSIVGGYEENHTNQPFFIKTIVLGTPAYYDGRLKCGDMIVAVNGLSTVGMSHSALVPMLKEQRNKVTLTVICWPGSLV
B4: Zyxin (Homo sapiens), Q15942 (parent)
chain: MAAPRPSPAISVSVSAPAFYAPQKKFGPVVAPKPKVNPFRPGDSEPPPAPGAQRAQMGRVGEIPPPPPEDFPLPPPPLAGDGDDAEGALGGAFPPPPPPIEESFPPAPLEEEIFPSPPPPPEEEGGPEAPIPPPPQPREKVSSIDLEIDSLSSLLDDMTKNDPFKARVSSGYVPPPVATPFSSKSSTKPAAGGTAPLPPWKSPSSSQPLPQVPAPAQSQTQFHVQPQPQPKPQVQLHVQSQTQPVSLANTQPRGPPASSPAPAPKFSPVTPKFTPVASKFSPGAPGGSGSQPNQKLGHPEALSAGTGSPQPPSFTYAQQREKPRVQEKQHPVPPPAQNQNQVRSPGAPGPLTLKEVEELEQLTQQLMQDMEHPQRQNVAVNELCGRCHQPLARAQPAVRALGQLFHIACFTCHQCAQQLQGQQFYSLEGAPYCEGCYTDTLEKCNTCGEPITDRMLRATGKAYHPHCFTCVVCARPLEGTSFIVDQANRPHCVPDYHKQYAPRCSVCSEPIMPEPGRDETVRVVALDKNFHMKCYKCEDCGKPLSIEADDNGCFPLDGHVLCRKCHTARAQT
partner: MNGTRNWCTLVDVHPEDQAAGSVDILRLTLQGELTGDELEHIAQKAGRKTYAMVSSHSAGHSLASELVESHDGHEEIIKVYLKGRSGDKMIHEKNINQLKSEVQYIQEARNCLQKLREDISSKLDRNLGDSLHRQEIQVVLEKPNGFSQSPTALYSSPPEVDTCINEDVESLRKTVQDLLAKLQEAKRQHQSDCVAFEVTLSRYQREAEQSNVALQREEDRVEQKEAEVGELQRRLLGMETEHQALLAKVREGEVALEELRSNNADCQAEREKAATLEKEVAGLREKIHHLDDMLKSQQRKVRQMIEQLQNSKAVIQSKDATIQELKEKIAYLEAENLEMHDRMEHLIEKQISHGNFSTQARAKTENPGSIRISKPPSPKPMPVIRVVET

Variants of: B1
Conditions: with atf4_human ATF4, P18848
Sequence of atf4_human ATF4, P18848 (P18848 whole entry): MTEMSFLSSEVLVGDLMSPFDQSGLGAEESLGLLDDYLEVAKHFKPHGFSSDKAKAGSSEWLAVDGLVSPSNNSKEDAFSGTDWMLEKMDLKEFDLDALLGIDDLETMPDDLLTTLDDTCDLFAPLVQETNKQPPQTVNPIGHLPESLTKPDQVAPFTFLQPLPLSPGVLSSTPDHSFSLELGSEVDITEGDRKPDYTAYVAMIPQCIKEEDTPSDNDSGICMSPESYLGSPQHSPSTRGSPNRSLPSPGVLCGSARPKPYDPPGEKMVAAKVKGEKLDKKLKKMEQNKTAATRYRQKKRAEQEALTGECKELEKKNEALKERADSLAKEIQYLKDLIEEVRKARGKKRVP

effect of a mutation on the interaction | Variant
with no effect | A54T

Variants of: B1
Conditions: with fam9b_human FAM9B

effect of a mutation on the interaction | Variant
with no effect | A54T

Variants of: B1
Conditions: with ptbp2_human PTBP2, Q9UKA9
Sequence of ptbp2_human PTBP2, Q9UKA9 (Q9UKA9 whole entry): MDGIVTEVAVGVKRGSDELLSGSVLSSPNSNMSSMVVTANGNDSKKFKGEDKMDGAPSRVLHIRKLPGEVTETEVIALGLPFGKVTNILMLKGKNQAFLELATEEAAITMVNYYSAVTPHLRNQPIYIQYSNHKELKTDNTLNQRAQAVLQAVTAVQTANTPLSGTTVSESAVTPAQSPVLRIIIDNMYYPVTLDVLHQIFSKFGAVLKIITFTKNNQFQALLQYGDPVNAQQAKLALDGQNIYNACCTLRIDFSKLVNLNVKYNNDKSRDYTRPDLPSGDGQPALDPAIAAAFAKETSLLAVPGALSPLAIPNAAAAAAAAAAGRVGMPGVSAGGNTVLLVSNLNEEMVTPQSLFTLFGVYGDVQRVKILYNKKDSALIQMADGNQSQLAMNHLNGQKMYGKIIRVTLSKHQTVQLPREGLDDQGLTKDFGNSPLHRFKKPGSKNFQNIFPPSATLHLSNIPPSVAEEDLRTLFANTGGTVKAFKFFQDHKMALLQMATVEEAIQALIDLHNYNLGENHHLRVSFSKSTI

effect of a mutation on the interaction | Variant
with no effect | A54T

Variants of: B2
Conditions: with atl4_human ADAMTSL4, Q6UY14

effect of a mutation on the interaction | Variant
disrupting interaction strength | R267W

Variants of: B3
Conditions: with lnx2_human LNX2, Q8N448

effect of a mutation on the interaction | Variant
with no effect | H126R

Variants of: B4
Conditions: with tuft1_human TUFT1, Q9NNX1

effect of a mutation on the interaction | Variant
with no effect | R563Q
